For assay [1], the target named is photosystem I complex of Synechocystis sp. PCC 6803. The assay can be described thus: negative stain TEM.
Assay [2] has as its target photosystem I complex of Prochlorococcus marinus ecotype MIT9313 (Prochlorococcus marinus MIT9313 (endogenous in thylakoid membranes)). In words: atomic force microscopy.
For assay [3], the target named is photosystem I complex of Prochlorococcus marinus ecotype SS120 (Prochlorococcus marinus SS120 (endogenous in thylakoid membranes)). The assay can be described thus: atomic force microscopy.
Assay [4] addresses photosystem I complex of Prochlorococcus marinus ecotype MED4 (Prochlorococcus marinus MED4 (endogenous in thylakoid membranes)). The assay can be described thus: atomic force microscopy.
Assay [5] has the same target. In words: atomic force microscopy. This is another data set of the same source.

Like-named read-outs stand apart in the source and are kept apart here.

The substance “photosystem I complex of Synechocystis sp. PCC 6803” had a stoichiometry N in assay [1] of 3. Regarding “photosystem I complex of Prochlorococcus marinus ecotype MIT9313”, in assay [2], the ratio of trimeric to non-trimeric PSI was 44.5 and the stoichiometry N stood at 3.

“photosystem I complex of Prochlorococcus marinus ecotype SS120” yielded a stoichiometry N in assay [3] of 3. With “photosystem I complex of Prochlorococcus marinus ecotype MED4”, in assay [4], the ratio of PSI monomer equivalents in trimeric vs monomeric or dimeric PSI worked out at 5.3 and the stoichiometry N turned out to be 2. Further, in assay [5], the stoichiometry N was determined as 3.

What is called stoichiometry N is a count of units in the complex or per binding partner.

The record behind these values is publication PMC6699766.
